Data set [1] addresses T1, MsEgtE (Mycolicibacterium smegmatis, UniProt A0R5M7).
T1 construct: gene egtE; full-length ORF, pET28a N-terminal hexa-histidine tag, E. coli BL21 (DE3); homodimer (~76 kDa by SEC, predicted 78 kDa)
T1 sequence (A0R5M7 1-371): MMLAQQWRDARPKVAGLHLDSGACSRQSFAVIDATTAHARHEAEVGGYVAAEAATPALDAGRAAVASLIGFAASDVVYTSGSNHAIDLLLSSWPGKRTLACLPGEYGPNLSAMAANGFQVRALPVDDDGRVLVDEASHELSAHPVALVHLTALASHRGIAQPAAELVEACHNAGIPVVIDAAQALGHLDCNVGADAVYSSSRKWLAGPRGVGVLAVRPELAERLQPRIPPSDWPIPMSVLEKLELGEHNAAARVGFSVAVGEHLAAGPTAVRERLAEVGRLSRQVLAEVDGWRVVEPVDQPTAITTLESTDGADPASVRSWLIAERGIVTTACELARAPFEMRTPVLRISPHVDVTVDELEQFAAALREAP
The data set is described as follows: X-ray crystal structure, […] Å. Type of data set: binding. To be noted: active site of MsEgtE-PLP; from soaked sulfoxide 4 (10 mM).

Data set [2] deals with T2, MsEgtE (Mycolicibacterium smegmatis, UniProt A0R5M7, Y48A).
T2 construct: gene egtE; full-length ORF, pET28a N-terminal hexa-histidine tag, E. coli BL21 (DE3); homodimer (~76 kDa by SEC, predicted 78 kDa)
T2 sequence (A0R5M7 whole entry Y48A): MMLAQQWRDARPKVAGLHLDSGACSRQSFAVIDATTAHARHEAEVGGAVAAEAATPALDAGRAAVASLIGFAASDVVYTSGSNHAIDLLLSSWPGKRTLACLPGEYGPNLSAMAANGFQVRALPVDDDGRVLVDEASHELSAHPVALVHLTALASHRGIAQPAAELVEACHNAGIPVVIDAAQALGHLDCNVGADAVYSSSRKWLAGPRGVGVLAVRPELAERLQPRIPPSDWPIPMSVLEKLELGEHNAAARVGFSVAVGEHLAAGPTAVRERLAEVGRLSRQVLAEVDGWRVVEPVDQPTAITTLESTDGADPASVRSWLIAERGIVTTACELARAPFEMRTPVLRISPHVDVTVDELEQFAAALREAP
The data set is described as follows: isothermal titration calorimetry, single injection. Particulars: 25 °C; 1 mM sulfoxide 4 injected into 20 μM enzyme. The data set is classed as binding.

Substrate in the data set “purified protein”: C[N+](C)(C)[C@@H](Cc1cnc([S+]([O-])C[C@H](N)C(=O)O)[nH]1)C(=O)[O-]
The data set is described as follows: purified protein. Type of data set: biochemical, Mycolicibacterium smegmatis. Particulars: 50 mM KPi pH 8.0, 25 °C, PLP-loaded enzyme, 1 mM DTT, 0.13 mM NADH.

Data set [3] concerns the molecule itself. The data set is described as follows: crystal structure; MsEgtE-PLP binding pyruvate crystal, 2.35 Å, short soak in sulfoxide 4; 0.1 M citric acid pH 6.5, 15% PEG8000, 15% glycol.
Data set [4] concerns the molecule itself. As to the kind of experiment: crystal structure; MsEgtE-PLP crystal, 2.8 Å, two molecules per asymmetric unit; sitting drop at 16 °C, 0.1 M HEPES-Na pH 7.5, 1 M NaCl, 0.1 M LiSO4, 10% PEG1000.

These results are taken from paper PMC10805701, “Structure of mycobacterial ergothioneine-biosynthesis C-S lyase EgtE” (The Journal of Biological Chemistry, 2023).

As a reminder, the Km is the concentration of substrate that gives half-maximal velocity. One may read the kcat as the maximal rate divided by the concentration of active sites. In general, stoichiometry N refers to a count of units in the complex or per binding partner.

Residue numbers refer to the chain shown, from its start. Names and notes keep the numbering of the source.

On to `CC(=O)C(=O)O` [pyruvate], for which the “X-ray crystal structure, 2.35 Å” value on MsEgtE [1] is “pyruvate binds in the deep crevice of the active center”. On to `C[N+](C)(C)[C@@H](Cc1cnc([S+]([O-])C[C@H](N)C(=O)O)[nH]1)C(=O)[O-]` (stereo partly drawn) [compound 4, sulfoxide 4], for which, at MsEgtE [2], the “isothermal titration calorimetry, single injection” value was “Y48A mutant still retains a certain level of substrate binding capability”.

B1: MsEgtE (Mycolicibacterium smegmatis MC2 155) (protein)
chain: T1 sequence (A0R5M7 1-371)
notes: full-length ORF, pET28a N-terminal hexa-histidine tag, E. coli BL21 (DE3); homodimer (~76 kDa by SEC, predicted 78 kDa)
Turning to B1, in the data set “purified protein”, the Km was 516.0 ± 122.1 µM and the kcat worked out at 2.08 ± 0.25 s⁻¹.

B2: MsEgtE (Mycolicibacterium smegmatis MC2 155; Q183A) (protein)
chain: T1 sequence (A0R5M7 1-371) with Q183A
notes: as for B1
As for B2, in “purified protein”, the Km was determined as 679.7 ± 235.0 µM and the kcat was determined as 0.23 ± 0.04 s⁻¹.

B3: ergothioneine-biosynthesis C-S lyase EgtE from Mycobacterium smegmatis (enzyme, M. smegmatis strain mc2155, UniProt A0R5M7 1-371, looked up)
chain: T1 sequence (A0R5M7 1-371)
modifications: PLP covalently linked to Lys203 via a Schiff base linkage (monomer 1; bond broken in monomer 2 of the MsEgtE-PLP crystal)
notes: EgtE (PLP-dependent C-S lyase), Mycobacterium smegmatis strain mc2155, full-length ORF of msmeg_6246 in pET28a; residues 1-371 described in the structure; Homodimer by crystal structure and size exclusion chromatography; also called MsEgtE; MsEgtE-PLP
With B3, the “stoichiometry N” value was determined as 4 in data set [3] and 2 in data set [4].

B4: MsEgtE (Mycolicibacterium smegmatis MC2 155; Y106F) (protein)
chain: T1 sequence (A0R5M7 1-371) with Y106F
notes: as for B1
In the case of B4, in “purified protein”, the Km is listed as 52.1 ± 13.1 µM and the kcat was determined as 0.32 ± 0.02 s⁻¹.

B5: MsEgtE (Mycolicibacterium smegmatis MC2 155; R202K) (protein)
chain: T1 sequence (A0R5M7 1-371) with R202K
notes: as for B1
Consider B5, for which, in “purified protein”, the Km turned out to be 58.5 ± 8.7 µM and the kcat came out at 0.03 ± 0.01 s⁻¹.
